Reference: US20190153089A1 (NUMAB INNOVATION, published 2019)
Changes are numbered by the printed parent chain.

B1: humanized scFv 17-21-A01-sc01 (CDR graft) (scFv)
scFv: MDIQMTQSPSSLSASVGDRVTITCQASESIGNALAWYQQKPGKAPKLLIYSASTLASGVPSRFSGSGSGTDFTLTISSLQPEDFATYYCQSYYYSSSGSYVAFGGGTKLTVLGGGGGSGGGGSGGGGSGGGGSEVQLVESGGGLVQPGGSLRLSCAASGIDFNKYYFMCWVRQAPGKGLEWIGCINTGSGSTYYATWAKGRFTISRDNSKNTVYLQMNSLRAEDTAVYYCARASGSSSVVYIGVYFSLWGQGTLVTVSS
B2: humanized scFv 17-21-A01-sc03 (CDR graft with disulfide bridge, CDR/DS) (scFv)
scFv: B1 scFv with G105C, G178C
notes: A disulfide bridge was introduced between residues VL141-VH51; also called 17-21-A01-sc03 (CDR/DS)
B3: recombinant human TNFβ (Peprotech, Cat. No. 300-01B) (ligand, UniProt P01374 35-205, looked up)
chain: LPGVGLTPSAAQTARQHPKMHLAHSTLKPAAHLIGDPSKQNSLLWRANTDRAFLQDGFSLSNNSLLVPTSGIYFVYSQVVFSGKAYSPKATSSPLYLAHEVQLFSSQYPFHVPLLSSQKMVYPGLQEPWLHSMYHGAAFQLTQGDQLSTHTDGIPHLVLSPSTVFFGAFAL

Key:
[1] = target: T1, recombinant Cynomolgus monkey TNFα (Sino Biological, Cat. No. 90018-CNAE) (Cynomolgus monkey (Macaca fascicularis), UniProt P79337 77-233); assay: SPR
T1 construct: also called Cyno TNFα; Cynomolgus TNFα
Description: (§1) In a second step, for the best performing scFvs, Single Injection Cycle Kinetics (SiCK) were measured from a single injection cycle by simultaneously injecting six analyte samples at different concentrations into each of the eight parallel channels in the MASS-1 system. […] The apparent dissociation (kd) and association (kₐ) rate constants and the apparent dissociation equilibrium constant (KD) were calculated with the MASS-1 analysis software (Analyzer, Sierra Sensors) using one-to-one Langmuir binding model and quality of the fits was monitored based on Chi², which is a measure for the quality of the curve fitting. The smaller the value for the Chi² the more accurate is the fitting to the one-to-one Langmuir binding model. For affinity screenings, results were deemed valid if the Chi² was below 10 for the concentration analyzed. In cases where several scFv concentrations were analyzed, results were deemed valid if the average Chi² over all the concentrations tested was below 10.

[2] = target: T2, Rhesus monkey TNFα (R&D Systems, Cat. No. 1070-RM-025/CF) (Rhesus monkey (Macaca mulatta), UniProt P48094 77-233); assay: SPR
T2 construct: also called Rhesus TNFα; Macaca mulatta TNFα
Description: as §1

[3] = target: T3, recombinant human TNFα (Peprotech, Cat. No. 300-01) (human, UniProt P01375 77-233, biotinylated in the inhibition and competition ELISAs; unlabelled elsewhere); assay: cell-based or functional assay
[4] = target: T1, recombinant Cynomolgus monkey TNFα …; assay: cell-based or functional assay
[5] = target: T2, Rhesus monkey TNFα (R&D Systems, Cat. …); assay: cell-based or functional assay
[6] = target: T3, recombinant human TNFα (Peprotech, Cat. …); assay: SPR (MASS-1), TNFα immobilized, scFv 45-1.4 nM
Description: as §1

[7] = target: T1, recombinant Cynomolgus monkey TNFα …; assay: SPR (MASS-1), TNFα immobilized, scFv 45-1.4 nM
Description: as §1

[8] = target: T2, Rhesus monkey TNFα (R&D Systems, Cat. …); assay: SPR (MASS-1), TNFα immobilized, scFv 45-1.4 nM
Description: as §1

[9] = target: B3; assay: competition ELISA: unlabeled TNFβ against biotinylated TNFα on coated scFv
Description: (§2) For this purpose, the scFvs were coated on a 96-well Maxisorp ELISA plate at a concentration of […]. […] To control precision of the response, the dose-response curves were analyzed in duplicate.

[10] = target: T3, recombinant human TNFα (Peprotech, Cat. …); assay: inhibition ELISA, biotinylated TNFα (960 pM) preincubated with scFv, binding to coated TNFRI-Fc
From the text: (§3) For the first inhibition ELISA, the extracellular domain of TNFRI fused to the Fc region of human IgG (R&D Systems, Cat. No. 372-RI) was coated on a 96-well Maxisorp ELISA at a concentration of […]. For the second inhibition ELISA, the extracellular domain of TNFRII fused to the Fc region of human IgG (R&D Systems, Cat. No. 726-R2) was coated at a concentration of […]. All subsequent steps were identical for both assays.

[11] = target: T3, recombinant human TNFα (Peprotech, Cat. …); assay: inhibition ELISA, biotinylated TNFα (960 pM) preincubated with scFv, binding to coated TNFRII-Fc
From the text: as §3

[12] = target: B1; assay: competition ELISA: unlabeled TNFβ or TNFα against biotinylated TNFα on coated scFv
Description: as §2

[13] = target: B2; assay: as above
Description: as §2

[14] = target: B1; assay: competition ELISA: unlabeled TNFβ against biotinylated TNFα on coated scFv; scFv 17-21-A01-sc01
Description: as §2

[15] = target: B2; assay: competition ELISA: unlabeled TNFβ against biotinylated TNFα on coated scFv; scFv 17-21-A01-sc03
Description: as §2

T2 sequence (P48094 77-233 limits assumed): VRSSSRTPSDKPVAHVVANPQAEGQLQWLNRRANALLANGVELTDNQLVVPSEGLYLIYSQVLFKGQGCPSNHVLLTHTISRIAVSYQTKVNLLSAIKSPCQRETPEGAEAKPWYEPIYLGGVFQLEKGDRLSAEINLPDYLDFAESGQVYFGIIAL
T1 sequence (P79337 77-233 limits assumed): as the sequence (P48094 77-233 limits assumed) above, with L37V counted along it
T3 sequence (P01375 77-233 limits assumed): as the sequence (P48094 77-233 limits assumed) above, with T44R, N72T, L138R counted along it

Binder | Potency, rel. IC50 in L929 assay (IC50 infliximab / IC50 scFv, ng/mL) [3] | Potency, rel. IC90 in L929 assay (IC90 infliximab / IC90 scFv, ng/mL) [3] | Species-specificity IC50, L929 assay with human TNFα [3] | Species-specificity IC50, L929 assay with Cynomolgus TNFα [4] | Species-specificity IC50, L929 assay with Rhesus TNFα [5] | Kd [6] | koff [6] | kon [6] | binding result [9] | IC50 [10] | rel. IC50 (IC50 infliximab / IC50 scFv, ng/mL) [10] | rel. IC90 (IC90 infliximab / IC90 scFv, ng/mL) [10] | IC50 [11] | rel. IC50 (IC50 infliximab / IC50 scFv, ng/mL) [11] | rel. IC90 (IC90 infliximab / IC90 scFv, ng/mL) [11] | other results
B1 | 9.2 fold | 12.2 fold | 0.0014 µg/mL | 0.193 µg/mL | 0.111 µg/mL | 0.21 nM | 0.00014 s⁻¹ | 660000 M⁻¹ s⁻¹ | no binding (tested: 1250 µg/mL) | 0.0316 µg/mL | 2.9 fold | 2 fold | 0.0541 µg/mL | 2.2 fold | 0.8 fold | fold difference in affinity against human TNFα [1]: ~5 fold; fold difference in affinity against human TNFα [2]: ~5 fold; Kd [7]: 2.4 nM; koff [7]: 0.0016 s⁻¹; kon [7]: 650000 M⁻¹ s⁻¹; Kd [8]: 2.5 nM; koff [8]: 0.0019 s⁻¹; kon [8]: 760000 M⁻¹ s⁻¹
B2 | 6.5 fold | 6.4 fold | 0.0012 µg/mL | 0.0506 µg/mL | 0.0542 µg/mL | 0.27 nM | 0.00011 s⁻¹ | 400000 M⁻¹ s⁻¹ | no binding (tested: 1250 µg/mL) | 0.0502 µg/mL | 1.8 fold | 1.8 fold | 0.0467 µg/mL | 2.6 fold | 0.8 fold | –
B3 | – | – | – | – | – | – | – | – | – | – | – | – | – | – | – | Target selectivity, rel. IC50 of TNFβ vs TNFα [12]: > 10000 fold; Target selectivity, rel. IC50 of TNFβ vs TNFα [13]: > 10000 fold; IC50 [14]: > 1250 µg/mL; IC50 [15]: > 1250 µg/mL
